{"source": "paper doi:10.1101/2024.12.23.630039", "about": "(2024)", "key": {"[1]": {"target": "T1, HLA-B*07:02 heavy chain with β2-microglobulin (MHC-I monomer, peptide groove as the binding site) (human | )", "assay": "predicted/cited value [23]"}, "[2]": {"target": "T1, HLA-B*07:02 heavy chain with …"}}, "note": "Like-named read-outs stand apart in the source and are kept apart here.", "data": [{"binder": "RKELVRPAL", "note": "[temperature-sensitive template peptide for HLA-B*07:02 (RKELVRPAL)]", "values": [{"measurement": "Kd", "setting": "[1]", "value": 4.12, "unit": "µM"}]}, {"binder": "RPELVRPAL", "note": "[high-affinity peptide for HLA-B*07:02 (Table 1)]", "values": [{"measurement": "Kd", "setting": "[2]", "value": 0.00438, "unit": "µM"}]}]}
